In paper PMC9482650, “Quantitative fragmentomics allow affinity mapping of interactomes” (Nature Communications, 2022):

T1: APBA2_2, Q99767
T1 sequence (Q99767 654-744, limits assumed, looked up): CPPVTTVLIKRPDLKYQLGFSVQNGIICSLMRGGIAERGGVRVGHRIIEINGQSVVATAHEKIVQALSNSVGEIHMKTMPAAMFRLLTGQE

T2: ARHGAP21, Q5T5U3
T2 sequence (Q5T5U3 45-169, limits assumed, looked up): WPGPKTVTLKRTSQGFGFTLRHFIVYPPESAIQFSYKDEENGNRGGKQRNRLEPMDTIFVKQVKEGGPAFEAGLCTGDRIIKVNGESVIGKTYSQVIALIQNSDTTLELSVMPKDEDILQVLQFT

T3: DFNB31_2, Q9P202
T3 sequence (Q9P202 274-371, limits assumed, looked up): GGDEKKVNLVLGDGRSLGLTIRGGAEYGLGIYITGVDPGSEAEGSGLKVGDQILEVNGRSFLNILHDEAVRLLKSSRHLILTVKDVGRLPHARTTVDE

T4: DLG3_1, Q92796
T4 sequence (Q92796 125-227, limits assumed, looked up): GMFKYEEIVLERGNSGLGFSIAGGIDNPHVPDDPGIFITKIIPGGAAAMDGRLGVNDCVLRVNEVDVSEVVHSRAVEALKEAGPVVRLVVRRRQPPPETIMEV

T5: LIN7A, O14910
T5 sequence (O14910 103-200, limits assumed, looked up): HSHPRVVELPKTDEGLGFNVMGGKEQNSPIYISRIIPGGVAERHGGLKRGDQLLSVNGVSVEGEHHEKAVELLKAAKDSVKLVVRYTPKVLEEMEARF

T6: LRRC7, Q96NW7
T6 sequence (Q96NW7 1440-1537, limits assumed, looked up): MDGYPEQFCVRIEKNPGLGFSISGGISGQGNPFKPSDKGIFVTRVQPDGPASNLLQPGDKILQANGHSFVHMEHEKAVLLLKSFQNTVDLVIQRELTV

T7: MPDZ_10, O75970
T7 sequence (O75970 1624-1722, limits assumed, looked up): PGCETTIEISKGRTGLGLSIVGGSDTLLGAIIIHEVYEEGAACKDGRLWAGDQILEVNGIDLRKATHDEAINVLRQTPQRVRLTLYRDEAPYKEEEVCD

T8: MPDZ_12, O75970
T8 sequence (O75970 1857-1958, limits assumed, looked up): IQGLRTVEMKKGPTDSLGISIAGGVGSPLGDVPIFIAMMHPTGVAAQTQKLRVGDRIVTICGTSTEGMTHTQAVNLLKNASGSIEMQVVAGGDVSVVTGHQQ

T9: MPDZ_5, O75970
T9 sequence (O75970 695-796, limits assumed, looked up): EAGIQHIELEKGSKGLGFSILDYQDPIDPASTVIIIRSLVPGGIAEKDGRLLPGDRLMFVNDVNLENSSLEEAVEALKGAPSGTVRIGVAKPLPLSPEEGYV

T10: NHERF3_1, Q5T2W1
T10 sequence (Q5T2W1 4-100, limits assumed, looked up): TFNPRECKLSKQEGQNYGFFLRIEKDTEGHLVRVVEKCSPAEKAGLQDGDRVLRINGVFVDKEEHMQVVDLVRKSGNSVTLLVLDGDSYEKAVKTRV

T11: NHERF3_4, Q5T2W1
T11 sequence (Q5T2W1 373-468, limits assumed, looked up): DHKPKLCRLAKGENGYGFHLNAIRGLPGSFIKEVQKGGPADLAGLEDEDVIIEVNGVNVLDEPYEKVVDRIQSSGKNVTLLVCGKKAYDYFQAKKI

T12: PDZRN3_1, Q9UPQ7
T12 sequence (Q9UPQ7 244-349, limits assumed, looked up): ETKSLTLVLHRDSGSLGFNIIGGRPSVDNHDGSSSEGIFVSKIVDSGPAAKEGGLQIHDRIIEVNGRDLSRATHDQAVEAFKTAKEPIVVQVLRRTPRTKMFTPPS

T13: TX1BP3, O14907
T13 sequence (O14907 10-122, limits assumed, looked up): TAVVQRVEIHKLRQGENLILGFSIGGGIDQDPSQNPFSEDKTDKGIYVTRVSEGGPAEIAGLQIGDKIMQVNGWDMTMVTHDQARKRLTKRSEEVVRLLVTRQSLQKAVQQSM


biological target: T1, APBA2_2, Q99767; test: holdup assay; parameters: key: below the threshold = too weak to quantify, mostly under pKd 3.1 to 4; conditions: plain residues with an end cap or a label only (N-terminal biotin on a linker: ado-ado)

| Binder | pKd |
| --- | --- |
| LPHGHSTTRV [NLGN4X, Q8N0W4] | below the threshold |
| VRNLPESEEL [MYOZ3, Q8TDC0] | below the threshold |

biological target: T2, ARHGAP21, Q5T5U3; test: holdup assay; parameters: key: below the threshold = too weak to quantify, mostly under pKd 3.1 to 4; conditions: plain residues with an end cap or a label only (N-terminal biotin on a linker: ado-ado)

| Binder | pKd |
| --- | --- |
| LPHGHSTTRV [NLGN4X, Q8N0W4] | 3.73 |
| VRNLPESEEL [MYOZ3, Q8TDC0] | 3.59 |

biological target: T3, DFNB31_2, Q9P202; test: holdup assay; parameters: key: below the threshold = too weak to quantify, mostly under pKd 3.1 to 4; conditions: plain residues with an end cap or a label only (N-terminal biotin on a linker: ado-ado)

| Binder | pKd |
| --- | --- |
| LPHGHSTTRV [NLGN4X, Q8N0W4] | below the threshold |
| VRNLPESEEL [MYOZ3, Q8TDC0] | below the threshold |

biological target: DLG1_2, Q12959; test: holdup assay; parameters: key: below the threshold = too weak to quantify, mostly under pKd 3.1 to 4; conditions: plain residues with an end cap or a label only (N-terminal biotin on a linker: ado-ado)
Sequence (Q12959 314-412): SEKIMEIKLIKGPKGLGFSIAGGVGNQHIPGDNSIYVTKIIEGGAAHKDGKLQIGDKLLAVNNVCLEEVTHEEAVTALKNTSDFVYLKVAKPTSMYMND

| Binder | pKd |
| --- | --- |
| LPHGHSTTRV [NLGN4X, Q8N0W4] | 4.04 |
| VRNLPESEEL [MYOZ3, Q8TDC0] | below the threshold |

biological target: DLG2_2, Q15700; test: holdup assay; parameters: key: below the threshold = too weak to quantify, mostly under pKd 3.1 to 4; conditions: plain residues with an end cap or a label only (N-terminal biotin on a linker: ado-ado)

| Binder | pKd |
| --- | --- |
| LPHGHSTTRV [NLGN4X, Q8N0W4] | 3.74 |
| VRNLPESEEL [MYOZ3, Q8TDC0] | below the threshold |

biological target: DLG2_3, Q15700; test: holdup assay; parameters: key: below the threshold = too weak to quantify, mostly under pKd 3.1 to 4; conditions: plain residues with an end cap or a label only (N-terminal biotin on a linker: ado-ado)

| Binder | pKd |
| --- | --- |
| LPHGHSTTRV [NLGN4X, Q8N0W4] | 4.42 |
| VRNLPESEEL [MYOZ3, Q8TDC0] | below the threshold |

biological target: T4, DLG3_1, Q92796; test: holdup assay; parameters: key: below the threshold = too weak to quantify, mostly under pKd 3.1 to 4; conditions: plain residues with an end cap or a label only (N-terminal biotin on a linker: ado-ado)

| Binder | pKd |
| --- | --- |
| LPHGHSTTRV [NLGN4X, Q8N0W4] | below the threshold |
| VRNLPESEEL [MYOZ3, Q8TDC0] | below the threshold |

biological target: HTRA1, Q92743; test: holdup assay; parameters: key: below the threshold = too weak to quantify, mostly under pKd 3.1 to 4; conditions: plain residues with an end cap or a label only (N-terminal biotin on a linker: ado-ado)
Sequence (Q92743 360-477): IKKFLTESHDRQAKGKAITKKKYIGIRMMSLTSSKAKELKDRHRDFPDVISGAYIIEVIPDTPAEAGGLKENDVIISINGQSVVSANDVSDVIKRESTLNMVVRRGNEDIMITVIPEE

| Binder | pKd |
| --- | --- |
| LPHGHSTTRV [NLGN4X, Q8N0W4] | 3.72 |
| VRNLPESEEL [MYOZ3, Q8TDC0] | 3.84 |

biological target: IL16_3, Q14005; test: holdup assay; parameters: key: below the threshold = too weak to quantify, mostly under pKd 3.1 to 4; conditions: plain residues with an end cap or a label only (N-terminal biotin on a linker: ado-ado)
Sequence (Q14005 1107-1207): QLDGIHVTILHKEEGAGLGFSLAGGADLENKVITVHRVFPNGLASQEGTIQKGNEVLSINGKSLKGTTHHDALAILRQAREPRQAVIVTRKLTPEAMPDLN

| Binder | pKd |
| --- | --- |
| LPHGHSTTRV [NLGN4X, Q8N0W4] | below the threshold |
| VRNLPESEEL [MYOZ3, Q8TDC0] | below the threshold |

biological target: T5, LIN7A, O14910; test: holdup assay; parameters: key: below the threshold = too weak to quantify, mostly under pKd 3.1 to 4; conditions: plain residues with an end cap or a label only (N-terminal biotin on a linker: ado-ado)

| Binder | pKd |
| --- | --- |
| LPHGHSTTRV [NLGN4X, Q8N0W4] | below the threshold |
| VRNLPESEEL [MYOZ3, Q8TDC0] | below the threshold |

biological target: T6, LRRC7, Q96NW7; test: holdup assay; parameters: key: below the threshold = too weak to quantify, mostly under pKd 3.1 to 4; conditions: plain residues with an end cap or a label only (N-terminal biotin on a linker: ado-ado)

| Binder | pKd |
| --- | --- |
| LPHGHSTTRV [NLGN4X, Q8N0W4] | below the threshold |
| VRNLPESEEL [MYOZ3, Q8TDC0] | below the threshold |

biological target: MAGI2_5, Q86UL8; test: holdup assay; parameters: key: below the threshold = too weak to quantify, mostly under pKd 3.1 to 4; conditions: plain residues with an end cap or a label only (N-terminal biotin on a linker: ado-ado)
Sequence (Q86UL8 915-1017): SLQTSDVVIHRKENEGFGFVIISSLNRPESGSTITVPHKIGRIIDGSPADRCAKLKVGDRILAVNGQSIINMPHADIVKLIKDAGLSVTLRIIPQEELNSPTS

| Binder | pKd |
| --- | --- |
| LPHGHSTTRV [NLGN4X, Q8N0W4] | below the threshold |
| VRNLPESEEL [MYOZ3, Q8TDC0] | below the threshold |

biological target: MAST1, Q9Y2H9; test: holdup assay; parameters: key: below the threshold = too weak to quantify, mostly under pKd 3.1 to 4; conditions: plain residues with an end cap or a label only (N-terminal biotin on a linker: ado-ado)
Sequence (Q9Y2H9 962-1065): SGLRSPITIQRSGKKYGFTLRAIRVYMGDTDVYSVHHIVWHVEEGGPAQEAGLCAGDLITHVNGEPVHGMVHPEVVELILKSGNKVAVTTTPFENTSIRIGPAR

| Binder | pKd |
| --- | --- |
| LPHGHSTTRV [NLGN4X, Q8N0W4] | 4.7 |
| VRNLPESEEL [MYOZ3, Q8TDC0] | 4.11 |

biological target: T7, MPDZ_10, O75970; test: holdup assay; parameters: key: below the threshold = too weak to quantify, mostly under pKd 3.1 to 4; conditions: plain residues with an end cap or a label only (N-terminal biotin on a linker: ado-ado)

| Binder | pKd |
| --- | --- |
| LPHGHSTTRV [NLGN4X, Q8N0W4] | 3.83 |
| VRNLPESEEL [MYOZ3, Q8TDC0] | below the threshold |

biological target: T8, MPDZ_12, O75970; test: holdup assay; parameters: key: below the threshold = too weak to quantify, mostly under pKd 3.1 to 4; conditions: plain residues with an end cap or a label only (N-terminal biotin on a linker: ado-ado)

| Binder | pKd |
| --- | --- |
| LPHGHSTTRV [NLGN4X, Q8N0W4] | below the threshold |
| VRNLPESEEL [MYOZ3, Q8TDC0] | below the threshold |

biological target: T9, MPDZ_5, O75970; test: holdup assay; parameters: key: below the threshold = too weak to quantify, mostly under pKd 3.1 to 4; conditions: plain residues with an end cap or a label only (N-terminal biotin on a linker: ado-ado)

| Binder | pKd |
| --- | --- |
| LPHGHSTTRV [NLGN4X, Q8N0W4] | below the threshold |
| VRNLPESEEL [MYOZ3, Q8TDC0] | below the threshold |

biological target: T10, NHERF3_1, Q5T2W1; test: holdup assay; parameters: key: below the threshold = too weak to quantify, mostly under pKd 3.1 to 4; conditions: plain residues with an end cap or a label only (N-terminal biotin on a linker: ado-ado)

| Binder | pKd |
| --- | --- |
| LPHGHSTTRV [NLGN4X, Q8N0W4] | 3.88 |
| VRNLPESEEL [MYOZ3, Q8TDC0] | 3.88 |

biological target: T11, NHERF3_4, Q5T2W1; test: holdup assay; parameters: key: below the threshold = too weak to quantify, mostly under pKd 3.1 to 4; conditions: plain residues with an end cap or a label only (N-terminal biotin on a linker: ado-ado)

| Binder | pKd |
| --- | --- |
| LPHGHSTTRV [NLGN4X, Q8N0W4] | 3.85 |
| VRNLPESEEL [MYOZ3, Q8TDC0] | below the threshold |

biological target: NOS1, P29475; test: holdup assay; parameters: key: below the threshold = too weak to quantify, mostly under pKd 3.1 to 4; conditions: plain residues with an end cap or a label only (N-terminal biotin on a linker: ado-ado)
Sequence (P29475 9-101): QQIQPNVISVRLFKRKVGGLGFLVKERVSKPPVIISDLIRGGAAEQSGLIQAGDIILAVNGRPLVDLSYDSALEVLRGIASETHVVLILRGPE

| Binder | pKd |
| --- | --- |
| LPHGHSTTRV [NLGN4X, Q8N0W4] | 3.76 |
| VRNLPESEEL [MYOZ3, Q8TDC0] | below the threshold |

biological target: T12, PDZRN3_1, Q9UPQ7; test: holdup assay; parameters: key: below the threshold = too weak to quantify, mostly under pKd 3.1 to 4; conditions: plain residues with an end cap or a label only (N-terminal biotin on a linker: ado-ado)

| Binder | pKd |
| --- | --- |
| LPHGHSTTRV [NLGN4X, Q8N0W4] | 3.78 |
| VRNLPESEEL [MYOZ3, Q8TDC0] | below the threshold |

biological target: PICK1, Q9NRD5; test: holdup assay; parameters: key: below the threshold = too weak to quantify, mostly under pKd 3.1 to 4; conditions: plain residues with an end cap or a label only (N-terminal biotin on a linker: ado-ado)
Sequence (Q9NRD5 17-115): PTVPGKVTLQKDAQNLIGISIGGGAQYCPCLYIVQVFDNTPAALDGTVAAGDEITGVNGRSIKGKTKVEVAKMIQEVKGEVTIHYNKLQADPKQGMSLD

| Binder | pKd |
| --- | --- |
| LPHGHSTTRV [NLGN4X, Q8N0W4] | 4.27 |
| VRNLPESEEL [MYOZ3, Q8TDC0] | 4.05 |

biological target: PTPN3, P26045; test: holdup assay; parameters: key: below the threshold = too weak to quantify, mostly under pKd 3.1 to 4; conditions: plain residues with an end cap or a label only (N-terminal biotin on a linker: ado-ado)
Sequence (P26045 505-587): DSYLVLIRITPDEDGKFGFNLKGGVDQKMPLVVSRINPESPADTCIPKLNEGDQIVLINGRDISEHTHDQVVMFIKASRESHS

| Binder | pKd |
| --- | --- |
| LPHGHSTTRV [NLGN4X, Q8N0W4] | 4.36 |
| VRNLPESEEL [MYOZ3, Q8TDC0] | 3.91 |

biological target: TJP1_2, Q07157; test: holdup assay; parameters: key: below the threshold = too weak to quantify, mostly under pKd 3.1 to 4; conditions: plain residues with an end cap or a label only (N-terminal biotin on a linker: ado-ado)
Sequence (Q07157 181-274): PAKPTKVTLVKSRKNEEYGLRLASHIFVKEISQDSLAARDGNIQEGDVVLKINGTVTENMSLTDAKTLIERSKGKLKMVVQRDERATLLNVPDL

| Binder | pKd |
| --- | --- |
| LPHGHSTTRV [NLGN4X, Q8N0W4] | below the threshold |
| VRNLPESEEL [MYOZ3, Q8TDC0] | below the threshold |

biological target: T13, TX1BP3, O14907; test: holdup assay; parameters: key: below the threshold = too weak to quantify, mostly under pKd 3.1 to 4; conditions: plain residues with an end cap or a label only (N-terminal biotin on a linker: ado-ado)

| Binder | pKd |
| --- | --- |
| LPHGHSTTRV [NLGN4X, Q8N0W4] | below the threshold |
| VRNLPESEEL [MYOZ3, Q8TDC0] | below the threshold |
